Measurements taken from the DeepSol protein solubility set.

Experiment: soluble on expression in E. coli; label from the status in PepcDB or PDB records

Row | Sequence | soluble on expression in E. coli
1 | GTEETAKVVPMAVITPAINQLTDQEKAEGWALLFDGKTTKGWRGAHKDAFPDHGWMVKDGELIVQKSDGSESTNGGDIVTEGEYSAFEFSVDFKITEGANSGIKYFVTEQEKQKGSAYGLEFQLLDDAKHPDAKLYTTFPGSRTLGSLYDLKKSENIHFNGVGEWNTAVVKVFPNNHVEHWLNGVKVLEYERGSKEFRDLVKGSKYADPSYNAGGAFGEAPKGHILLQDHGDEVAFRNIKVKELK | soluble
2 | MSTYQAATIVAAPNEFRVPFPPFVQISKVQFQREAGSRLLAASGWDGTCRVYEVGKLGDISEKLVFTHGKPLLTCTFAGYNKVAFGGVDHNVKLADIETGNGTQLGSHALAVRCMEFNPMSSLIVSGGWDSSVKLWDARSYGNGAIESVNVSSSVYAMDVLKHTILVGTKDRKIFMYDSRKLREPLQVRDSPLKYQTRAVQFFPTGEAFVVSSIEGRVAVEYVDQSGEEMMKRKYAFKCHREKDTDGTELIHPVHTVAFHPKYGTFATGGADGIVNIWDPFNRKRIIQLHKFETSISSLSFNEDGSQLAIATSYQYEKEIDPSPLPNNSITIRHITDPESRPK | not soluble
3 | MLIRVEIPIDAPGIDALLRRSFESDAEAKLVHDLREDGFLTLGLVATDDEGQVVGYVAFSPVDVQGEDLQWVGMAPLAVDEKYRGQGLARQLVYEGLDSLNEFGYAAVVTLGDPALYSRFGFELAAHYDLHCRWPGTESAFQVHRLAEDALEGVTGLVEYHDHFNRF | not soluble
4 | LEQVNDKRISPLRPMRLRLIPLKCKTQPKKGKLSLQSVQKIYVNPRSNGTFKRVPLAGDLFKSRMRQPERDMQKNKLHDSDWQSNM | soluble
5 | MGKKSKNSVTTQTQWKRLKIDFVERKIDKDDVFFEEVSDEQLNDKIIVPLFTSSGTFEETIGILIQWQEYLKSRSDRLSEVFLSKVNSYFEHIRITLALPFDESKWAELETLTETDLNKTPIFINNIRTSTVSVILHLENLIKSFHLNVKSAEIFPFDSDSFGLPPINCRKILNPLLWMKAGIEKLIQNNCQCDQPPIVPLITLLDLAPKEGHFQELAIASFFLENTAHKLDYSCSDDEKKFLDQIKMKFGTTKVDKLTMVLPDILMAYSEELVERVMPVSYFIPFELFRMMLLSWQPKVLNLRLRTEACSSIEDAARIEWDDEDVFTSTTLFNCPLFDRCEPVCLGDEEIILNCKLIVDCSGSRLFDPMFNEGNVYTAGRDFLVLFPMQTIILKRIVPLKVGSSVKVQLKKQIDYIVNTFFFNASEHQDRVVNYELTFTNSTDVQMSAVKRCIPQVANGRQIGVNLNVEQETRDLFTDHGNSCPGRHMFASFFDSENQVIVDLKVVLAN | not soluble
6 | MGENSLWNVYKTVSFWKVMKNFIIIQIARYTPCLSVKNWLYRTFLRMKVGKKTSFALMVMPDIMFPEKITVGENSIIGYNTTLLAHEYLIREYRLGEIVIGNEVMIGANVTILPGVKIGDGATVSAGTLVHRDVPSGAFVGGNPMRIIYTKEQMTAREGLEHHHHHH | not soluble
7 | GAQNEKNMYSYKKIGNKYIVSINNHTEIVKALNAFCKEKGILSGSINGIGAIGELTLRFFNPKTKAYDDKTFREQMEISNLTGNISSMNEQVYLHLHITVGRSDYSALAGHLLSAIQNGAGEFVVEDYSERISRTYNPDLGLNIYDFER | soluble
8 | MGALGYHPYFESNMIHSMTAFAADEHLTPWGLLACELRSVNHRFLDIVIRLPEELRALEPQLRERVAARVSRGKLDLTVRLSPQEIHTGKLVVNELLLSQLSTLALRLSAQFPALRVTFAELLQIPGVLKGEQIDMATLQGHAVALLDKVLNNFIATREREGLKMQAMIAQRASAIERIVGEVRILIPTIREGQHNKLSARMNHLSYPVDPGRIEQELVLWLQKLDVDEELDRLSSHISELHRILQQREPVGRRLDFLMQEFNREANTLGSKSVDSRTSNATIELKVLIDQIREQVQNIE | soluble
9 | MMTSNSYWQRLKVAFQYVMPQIYLTQIAGWFAKQKWGKITHFVIKAFAKKYNIDMSIAQKEQFSDYASFNEFFIRPLKENARPINQNPTALCLPADGRISECGHIDDNLLLQAKGHFFSLEDLLAEDKELVETFKNGEFVTTYLSPRDYHRVHMPCDATLRKMIYVPGDLFSVNPFLAQHVPNLFARNERVICVFDTEFGTMVQILVGATITASIGTTWAGVINPPRHNEVKTWTYEGESAVKLLKGQEMGWFQLGSTVINLFQANQVRLADHLSVNEPVRMGEILAYKKLEHHHHHH | not soluble
10 | MQYFSPEQQYNAWIVSDLVKQIFHKRAGCSPGIHELAVFAEEHFHIDIDFVFSIIMNIGDIEFALTDEIEKKLSGYLSTLLPYVTADMFETSKANAHAFLSRRHGNAAYHLFVSDDAFMRKQLEHHHHHH | soluble
11 | MVAATPVQFVLPPLPEAPTAAAARLDGLSLADSGGGAGVRTVRLREALYGAGPYESADASMAELAAQIASLDRDKARSALAAVWQATVLGRPNRAANQVALAAAGGVLLLVDVAVQRLAGVRLEGGARSCSREDEEEAVMALLVLENLSCNVSLHRDMVLGAPGPHLLQMLVALAKDNTAAAAVRVNAAKVLVNLTFSQIELAAAATEAGALPAAVSLLQAGQKQALAETDAEVALGLHRQGAWLLSHLTAGQGCQARELLAAQPQALARIKDLLTTSRDTATLIRCCEVVCNLARGDVGPHAELIRAGLVQVLLKLVEVETEAPAPTGAARSEGSSVDLLLPALTALAALAAGGAACARGLLAHAPLLRTLTGALEWSNLISRDHDLSRVMLAAHSLVYVLGRFALRNRIVVPGVRAGVVVDAGMGATPAAATPQAQQVLQESGYVSFAAAMAALGLQQPRYTAAILGTELESGPHSAVASAAYQVNTELLPMMRHDNARMVVNTCARLYQIAVCLRDSPECRSVLSNTSLSLALSDLLRSQHSSVLQAALCLTDALAALPEVVPQLAANGVLDRLCDLLHNTSAQPQEHKAGTADTAGDPLVVLLAERALVTMFLTRGQHQAE | not soluble
12 | MDLFRKPKKRNAPVVRKKESSSDEDQDSEVKDVIQKRRRTNPMVQSTKQLDASTRRADNSSDDSDDSDDNQDIAVATHSFAASGDAGPSGPRDQGATATLEVDTDYSHDAQAQFERVQQQLKEGVEKDGKILYKGSALYGAKEAKDTAKGNAASGYNRVGPVRAPQFLRQTVRWDFAPDICKDYKETGFCTFGDSCKFVHDRSDYKHGWEIDEEYEAGKYGAEDDANYEIHEGDDTFPEDCFICGNPFVDPIVTKCKHYFCTGCALKSFQKSSKCPICQQNTENIMNTAKELLTYLKRKKQQQKQEAEKQEEEKDSDDDEKPHECDDHHHHDHEDEPEEPENDSNVPEAEEKSDEEQEIMMEDVEGLEGGENDSESDDDDAEKD | soluble
13 | MNYVKIGVGGPVGSGKTALIEKLTRILADSYSIGVVTNDIYTKEDAEFLIKNSVLPKERIIGVETGGCPHTAIREDASMNLEAVEELVQRFPDIQIVFIESGGDNLSATFSPELADATIYVIDVAEGDKIPRKGGPGITRSDLLVINKIDLAPYVGASLEVMERDSKKMRGEKPFIFTNLNTNEGVDKIIDWIKKSVLLEGV | soluble
14 | MSSPKVGFVSLGRPKALVDSERILTQLRTEGYEVTPEYNDADVVVVNTCGFIDSAKAESLEAIGEAIAENGKVIVTGCMGVEESVIRQVHPSVLAVTGPQQYEEVVRAVHGVAPPRQDHNPYLDLVPPQGVKLTPRHYAYLKISEGCNHRCSFCIIPSMRGDLVSRPVGDVLSEAERLVRAGVKELLVISQDTSAYGVDIKYRSGFWNGRPVKTRMTELCAALSELGVWTRLHYVYPYPHVDEVIGLMADGKVLPYLDIPFQHASPRILRAMKRPAFEDKTLARIKRWREECPDLTLRSTFIVGFPGETEEDFQYLLDWMSEAQLDRVGCFQYSPVEGAPANTLDNPVPDEVKQERWERFMEHQQAISTARLSTRVGREIDVLIDSVDEEGAVGRSSADAPEIDGCVYVDSEQPLKAGDMVRVRVTDSDEYDLWGERIALEHHHHHH | soluble
15 | MGSDKIHHHHHHMSESKIDNRLWSSKARNLSPYVPGEQPQHDDLCKLNTNENPFPPSPKVGEAITKVLAQQADDLRLYPAPESEELRGALAALYNLDINQVFVGNGSDEVLALVFASFFLKNRPVLAPDISYSFYPVYANTFGIELVQIPLEADFSISPDAYRRPCSGIIIANPNAPTGLLLSLADIRKLAGEHSDSVIVIDEAYIDFAQLEEASAESQMSAISLINEFDNLLVTQTFSKSRSLAGLRVGMAFGNASLIEALTRMKNSFNSYPLDKLAQAGATASVLDVEYFEQTCQQVIDLRTSLTAELTALGYDVLPSHANFVFARPHDGAASQVAEVLREQGIIVRHFDKPRINEYLRITIGTPSQHERLINALKALQAVADVEAS | not soluble
